This note sets out measurements from article PMC10607743, “An Enzymatic Strategy for the Selective Methylation of High-Value-Added Tetrahydroprotoberberine Alkaloids” (International Journal of Molecular Sciences, 2023).

The target in one data set is T1, PsSOMT (Papaver somniferum, UniProt I3PLQ7).
T1 construct: gene SOMT3
To be noted: 100 mM Tris-HCl, 37 °C, substrate 50-500 μM; methyl donor SAM (concentration and pH not given).

In data set [1] the test system is Oc1cc2c(cc1O)C1Cc3ccc(O)c(O)c3CN1CC2. Nature of the data set: purified protein. The conditions noted are these: 100 mM Tris-HCl, 37 °C, substrate 50-500 μM, methyl donor SAM (concentration and pH not given).

T1 sequence (I3PLQ7 whole entry): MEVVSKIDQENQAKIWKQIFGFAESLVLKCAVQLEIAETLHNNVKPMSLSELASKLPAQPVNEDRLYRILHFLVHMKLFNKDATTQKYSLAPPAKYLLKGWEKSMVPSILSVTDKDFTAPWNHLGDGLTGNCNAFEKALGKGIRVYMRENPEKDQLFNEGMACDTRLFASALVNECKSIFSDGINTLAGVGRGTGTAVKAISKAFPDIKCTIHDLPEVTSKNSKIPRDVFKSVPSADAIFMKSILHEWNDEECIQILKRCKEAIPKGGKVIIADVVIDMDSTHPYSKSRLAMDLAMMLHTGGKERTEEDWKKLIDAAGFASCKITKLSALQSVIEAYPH

One may read the Km as the substrate concentration at which the rate is half of its maximum. Turning to `Oc1cc2c(cc1O)C1Cc3ccc(O)c(O)c3CN1CC2` (centres unmarked) [2,3,9,10-tetrahydroxyberbine], on PsSOMT, the Km is 53.8 ± 12 µM.

A word on the Vmax: it is the rate approached at saturating substrate. A word on the kcat: it is the number of substrate molecules converted per active site and unit of time at saturation. In general, kcat/Km refers to the turnover number divided by the Michaelis constant. For Cj4’OMT (Coptis japonica), in data set [1], the Km was determined as 83.50 ± 19.72 µM, the Vmax amounted to 1.09 µmol/min/mg, the kcat was found to be 1.09 ± 0.08 s⁻¹ and the kcat/Km was 13000 M⁻¹ s⁻¹.
